For this assay, the target named is Candidatus Liberibacter asiaticus pyrophosphate-fructose-6-phosphate 1-phosphotransferase (Candidatus Liberibacter asiaticus). Kind of assay: SEC. A general note: Size exclusion chromatography separates by hydrodynamic size, large species first.

Consider “Candidatus Liberibacter asiaticus pyrophosphate-fructose-6-phosphate 1-phosphotransferase (enzyme)”, for which the stoichiometry N stood at 4.

What is called stoichiometry N is a count of units in the complex or per binding partner.

The record behind these values is publication doi:10.1101/2025.04.04.647159.
